Reference: patent US20250043302A1, “MUTATED HYDROXYPHENYLPYRUVATE DIOXYGENASE POLYPEPTIDE, AND CODING GENE AND USE THEREOF” (BEIJING DABEINONG BIOTECHNOLOGY CO., LTD., priority 2021, published 2025)
Changes are numbered by the printed parent chain. In names and notes the source's numbering stands.

B1: MsHPPDm-F372A-02: nucleotide sequence encoding Medicago sativa HPPD with F372A; vector DBN11735 (nucleic acid)
DNA: ATGGCTATTGAAACCGAAACACAAACTCAGACTGGATTTAAACTGGTAGGGTTCAAGAATTTCGTTAGGGCTAATCCCAAGTCTGATCGTTTTAAGGTCAAGAGGTTCCACCACGTGGAGTTCTGGTGCACTGATGCAACCAACACGGCGCGGCGTTTTTCACATGGTCTTGGAATGCCTATTGTTGCAAAATCCGACCTCTCCACGGGGAACCAAACACACGCCTCTTACCTGCTACGGAGTGGTGACTTGAACTTCCTCTTCAGCGCCGCCTACTCACCCTCCATATCGTTGTCTTCACCATCCTCGACCGCAGCAATTCCTACATTTTCTGCGAGCAACTGCTTCTCTTTCTCTGCCAGTCATGGCCTCGCCGTCAGAGCAGTGGCCGTTGAAGTAGAGGATGCTGAACTTGCTTTTACAACTTCAGTGAATAATGGAGCAATACCGAGCAGTCCGCCGGTCATACTTGAGAATCATGTGAAGCTAGCGGAGGTGAGGCTTTATGGGGACGTCGTTTTAAGATATGTCAGCTACAATGATCCAAACCCCAATCAAAATCCAAATTTGTTGTTCCTTCCTGGCTTCGAGCGTGTTAGCGATGAATCTTCAAACTCTTCACTGGATTTTGGAATCAGACGGTTGGATCATGCTGTTGGAAATGTTCCTGAACTCTCGAGCGCTGTGAAATATGTGAAGGACTTCACCGGTTTTCATGAATTTGCTGAGTTTACTGCAGAAGATGTGGGTACATCAGAGAGTGGCTTGAATTCCGTGGTGCTCGCCAACAACGAGGAGACTGTACTCTTACCAATGAATGAGCCAGTCTATGGCACCAAGCGTAAATCTCAAATTGAGACATATTTGGAGCACAATGAAGGAGCTGGACTTCAGCATCTCGCGCTGAAGAGTGAGGACATCTTCCGCACCCTACGGGAGATGAGGAAAAGAAGTGGTGTTGGTGGGTTTGAATTCATGCCATCACCTCCTGTCACCTACTACAGGAACCTGAAGAACAGAGTTGGTGATGTACTTTCGGACGAGCAGATAAAGGAATGTGAAGAGTTGGGGATTTTGGTTGATAGAGATGATCAAGGAACACTCCTGCAGATTGCCACAAAACCAATTGGCGACCGCCCCACTATCTTCATAGAGATCATCCAGAGGGTGGGGTGCATGCTCAAAGACGAGGAAGGGAAGGAGTACCAGAAGGGCGGCTGTGGTGGTTTTGGGAAAGGAAACTTTTCTGAGTTATTCAAATCAATTGAAGAGTATGAGAAGACGCTTGAAACGCGTCGCACTGCTTGA
modifications: MsHPPDm-F372A-02 Nucleotide Sequence
notes: vector DBN11735
B2: MsHPPDm-F383W-02: nucleotide sequence encoding Medicago sativa HPPD with F383W; vector DBN11736 (nucleic acid)
DNA: B1 DNA with G1114T, C1115T, C1116T, T1148G, C1149G
modifications: MsHPPDm-F383W-02 Nucleotide Sequence
notes: vector DBN11736

Legend:
Assay type in all cases: in vivo
[1] = test system: Arabidopsis thaliana T1 plants; assay: Mesotrione tolerance of transgenic Arabidopsis thaliana T1 plants (spray, bleached leaf area grade, damage score); set-up: Scores: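 damage score 0-100 computed as Σ(N×S)/(T×M)×100 over grades 0-3 with higher meaning more damage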; conditions: Arabidopsis thaliana T1 plants; for Grade 0 (classification and statistics of the grade of pesticide damage; number of plants) / Grade 1 (classification and statistics of the grade of pesticide damage; number of plants) / Grade 2 (classification and statistics of the grade of pesticide damage; number of plants) / Grade 3 (classification and statistics of the grade of pesticide damage; number of plants): 16 plants
Procedure, shortened: (§1)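 Read-out: per-plant damage grade 0–3 from proportion of bleached leaf area at 7 DAT (1 <50%, 2 >50%, 3 100%). Plants were T1 transformants, glufosinate-selected, plus wild-type CK, sprayed 18 days post-sowing. Rates: topramezone 25–200, isoxaflutole 35–280, mesotrione 52.5–420 g ai/ha.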

[2] = test system: Arabidopsis thaliana T1 plants; assay: Isoxaflutole tolerance of transgenic Arabidopsis thaliana T1 plants (spray, bleached leaf area grade, damage score); set-up: Scores (pesticide damage): scale not given here; conditions: spray, Arabidopsis thaliana T1 plants; for Classification and statistics of the grade of pesticide damage: Grade 0 (number of plants) / Classification and statistics of the grade of pesticide damage: Grade 1 (number of plants) / Classification and statistics of the grade of pesticide damage: Grade 2 (number of plants) / Classification and statistics of the grade of pesticide damage: Grade 3 (number of plants): 16 plants
Procedure, shortened: as §1

[3] = test system: Arabidopsis thaliana T1 plants; assay: Topramezone tolerance of transgenic Arabidopsis thaliana T1 plants (spray, bleached leaf area grade, damage score); conditions: 7 DAT, Table 4; for Classification and statistics of the grade of pesticide damage: Grade 0 / Classification and statistics of the grade of pesticide damage: Grade 1 / Classification and statistics of the grade of pesticide damage: Grade 2 / Classification and statistics of the grade of pesticide damage: Grade 3: number of plants; for Scores: pesticide damage score 0-100
Procedure, shortened: as §1

[4] = isoxaflutole 35 g ai/ha (0.5x field concentration)
[5] = isoxaflutole 70 g ai/ha (1x field concentration)

Molecule | Resistance evaluation ([1]; mesotrione 52.5 g ai/ha) | Scores ([1]; mesotrione 52.5 g ai/ha) | Grade 0 (classification and statistics of the grade of pesticide damage; number of plants) ([1]; mesotrione 52.5 g ai/ha) | Grade 1 (classification and statistics of the grade of pesticide damage; number of plants) ([1]; mesotrione 52.5 g ai/ha) | Grade 2 (classification and statistics of the grade of pesticide damage; number of plants) ([1]; mesotrione 52.5 g ai/ha) | Grade 3 (classification and statistics of the grade of pesticide damage; number of plants) ([1]; mesotrione 52.5 g ai/ha) | Resistance evaluation ([1]; mesotrione 105 g ai/ha) | Scores ([1]; mesotrione 105 g ai/ha) | Grade 0 (classification and statistics of the grade of pesticide damage; number of plants) ([1]; mesotrione 105 g ai/ha) | Grade 1 (classification and statistics of the grade of pesticide damage; number of plants) ([1]; mesotrione 105 g ai/ha) | Grade 2 (classification and statistics of the grade of pesticide damage; number of plants) ([1]; mesotrione 105 g ai/ha) | Grade 3 (classification and statistics of the grade of pesticide damage; number of plants) ([1]; mesotrione 105 g ai/ha) | Resistance evaluation [2, 4] | Scores (pesticide damage) [2, 4] | Classification and statistics of the grade of pesticide damage: Grade 0 (number of plants) [2, 4] | Classification and statistics of the grade of pesticide damage: Grade 1 (number of plants) [2, 4] | Classification and statistics of the grade of pesticide damage: Grade 2 (number of plants) [2, 4] | Classification and statistics of the grade of pesticide damage: Grade 3 (number of plants) [2, 4] | Resistance evaluation [2, 5] | Scores (pesticide damage) [2, 5] | also measured
B1 | Poorly resistant | 52 | 0 | 9 | 5 | 2 | Non-resistant | 100 | 0 | 0 | 0 | 16 | Poorly | 54 | 0 | 6 | 10 | 0 | Non-resistant | 100 | Classification and statistics of the grade of pesticide damage: Grade 0 (number of plants) [2, 5]: 0; Classification and statistics of the grade of pesticide damage: Grade 1 (number of plants) [2, 5]: 0; Classification and statistics of the grade of pesticide damage: Grade 2 (number of plants) [2, 5]: 0; Classification and statistics of the grade of pesticide damage: Grade 3 (number of plants) [2, 5]: 16; Classification and statistics of the grade of pesticide damage: Grade 0 ([3]; topramezone 25 g ai/ha (1×)): 5; Classification and statistics of the grade of pesticide damage: Grade 1 ([3]; topramezone 25 g ai/ha (1×)): 7; Classification and statistics of the grade of pesticide damage: Grade 2 ([3]; topramezone 25 g ai/ha (1×)): 4; Classification and statistics of the grade of pesticide damage: Grade 3 ([3]; topramezone 25 g ai/ha (1×)): 0; Classification and statistics of the grade of pesticide damage: Grade 0 ([3]; topramezone 100 g ai/ha (4×)): 0; Classification and statistics of the grade of pesticide damage: Grade 1 ([3]; topramezone 100 g ai/ha (4×)): 4; Classification and statistics of the grade of pesticide damage: Grade 2 ([3]; topramezone 100 g ai/ha (4×)): 9; Classification and statistics of the grade of pesticide damage: Grade 3 ([3]; topramezone 100 g ai/ha (4×)): 3; Scores ([3]; topramezone 25 g ai/ha (1×)): 31; Scores ([3]; topramezone 100 g ai/ha (4×)): 65; Resistance evaluation ([3]; topramezone 25 g ai/ha (1×)): moderately; Resistance evaluation ([3]; topramezone 100 g ai/ha (4×)): poorly
B2 | Non-resistant | 100 | 0 | 0 | 0 | 16 | Non-resistant | 100 | 0 | 0 | 0 | 16 | Non-resistant | 88 | 0 | 0 | 6 | 10 | Non-resistant | 100 | Classification and statistics of the grade of pesticide damage: Grade 0 (number of plants) [2, 5]: 0; Classification and statistics of the grade of pesticide damage: Grade 1 (number of plants) [2, 5]: 0; Classification and statistics of the grade of pesticide damage: Grade 2 (number of plants) [2, 5]: 0; Classification and statistics of the grade of pesticide damage: Grade 3 (number of plants) [2, 5]: 16; Classification and statistics of the grade of pesticide damage: Grade 0 ([3]; topramezone 25 g ai/ha (1×)): 0; Classification and statistics of the grade of pesticide damage: Grade 1 ([3]; topramezone 25 g ai/ha (1×)): 0; Classification and statistics of the grade of pesticide damage: Grade 2 ([3]; topramezone 25 g ai/ha (1×)): 4; Classification and statistics of the grade of pesticide damage: Grade 3 ([3]; topramezone 25 g ai/ha (1×)): 12; Classification and statistics of the grade of pesticide damage: Grade 0 ([3]; topramezone 100 g ai/ha (4×)): 0; Classification and statistics of the grade of pesticide damage: Grade 1 ([3]; topramezone 100 g ai/ha (4×)): 0; Classification and statistics of the grade of pesticide damage: Grade 2 ([3]; topramezone 100 g ai/ha (4×)): 0; Classification and statistics of the grade of pesticide damage: Grade 3 ([3]; topramezone 100 g ai/ha (4×)): 16; Scores ([3]; topramezone 25 g ai/ha (1×)): 92; Scores ([3]; topramezone 100 g ai/ha (4×)): 100; Resistance evaluation ([3]; topramezone 25 g ai/ha (1×)): non-resistant (non-resistant plants (scores 68-100)); Resistance evaluation ([3]; topramezone 100 g ai/ha (4×)): non-resistant (non-resistant plants (scores 68-100))
